T1: FN1–FN3 region of CNTN5 titrated against human APLP1(E1) and human APLP2(E1) ( (chicken, human, mouse and …, UniProt O94779 673-972))
T1 construct: contactin 5, FN1–FN3; source: E. coli BL21(DE3), purified (IMAC, 3C protease cleavage, ion exchange, gel filtration)
T1 sequence (looked up): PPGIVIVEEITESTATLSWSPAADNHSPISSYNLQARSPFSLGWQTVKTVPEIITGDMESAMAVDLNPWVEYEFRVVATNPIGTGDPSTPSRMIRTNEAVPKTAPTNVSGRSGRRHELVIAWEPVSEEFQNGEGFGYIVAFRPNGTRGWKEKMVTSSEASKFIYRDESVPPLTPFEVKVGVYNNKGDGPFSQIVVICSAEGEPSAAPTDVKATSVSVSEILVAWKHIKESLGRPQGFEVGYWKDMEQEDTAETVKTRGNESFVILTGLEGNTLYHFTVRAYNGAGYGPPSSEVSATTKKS

B1: E1 domain of human APLP2 (domain or fragment, UniProt Q06481 46-205, looked up)
chain: AVAEPQIAMFCGKLNMHVNIQTGKWEPDPTGTKSCFETKEEVLQYCQEMYPELQITNVMEANQRVSIDNWCRRDKKQCKSRFVTPFKCLVGEFVSDVLLVPEKCQFFHKERMEVCENHQHWHTVVKEACLTQGMTLYSYGMLLPCGVDQFHGTEYVCCPQ
modifications: biotin (EZ-Link NHS-PEG4-Biotin, 1:1 molar ratio)
notes: human amyloid beta precursor like protein 2, E1 domain; host and tags are those told for the E1 domains in general; source: E. coli Origami2(DE3), purified (as told for the E1 domains)
B2: FN1–FN3 region of human CNTN4 (domain or fragment, UniProt Q8IWV2 599-899, looked up)
chain: PPEAVTIDEITDTTAQLSWRPGPDNHSPITMYVIQARTPFSVGWQAVSTVPELIDGKTFTATVVGLNPWVEYEFRTVAANVIGIGEPSRPSEKRRTEEALPEVTPANVSGGGGSKSELVITWETVPEELQNGRGFGYVVAFRPYGKMIWMLTVLASADASRYVFRNESVHPFSPFEVKVGVFNNKGEGPFSPTTVVYSAEEEPTKPPASIFARSLSATDIEVFWASPLEKNRGRIQGYEVKYWRHEDKEENARKIRTVGNQTSTKITNLKGSVLYHLAVKAYNSAGTGPSSATVNVTTRKP
notes: human contactin 4, FN1–FN3; source: E. coli BL21(DE3), purified (IMAC, 3C protease cleavage, ion exchange, gel filtration)

Legend:
Experiment in all cases: BLI; biotinylated E1 domain ([…] nM) immobilised on streptavidin tips, CNTN FN1–FN3 in solution; room temperature; 150 mM NaCl, 10 mM Na-Hepes pH 7.5, 1 mg/ml BSA, 0.02% Tween-20; BLItz or Octet K2; KD from the signal at equilibrium
Conditions in all cases: both partners purified
[1] = target: B2
[2] = target: T1, FN1–FN3 region of CNTN5 titrated …
[3] = target: B1

Kd [1] [µM] | Kd [2] [µM] | fold decrease in affinity against human CNTN4 with APLP1 [3] [fold] | Binder
6.3 | ~38 | – | B1
– | – | 4 | B2
